Where two headings read alike, the source gives them in different places.
T1: O3-bS
T1 chain: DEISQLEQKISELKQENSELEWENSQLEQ

T2: O16-bS
T2 chain: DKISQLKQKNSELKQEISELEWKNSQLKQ

T3: O5-bS
T3 chain: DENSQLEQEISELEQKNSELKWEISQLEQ

T4: O7-bS
T4 chain: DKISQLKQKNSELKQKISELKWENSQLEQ

T5: O4-bS
T5 chain: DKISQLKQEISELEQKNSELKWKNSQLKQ

T6: O15-bS
T6 chain: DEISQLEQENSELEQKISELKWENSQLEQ

T7: O14-bS
T7 chain: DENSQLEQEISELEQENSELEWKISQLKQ

T8: O9-bS
T8 chain: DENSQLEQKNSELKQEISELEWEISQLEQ

T9: O11-bS
T9 chain: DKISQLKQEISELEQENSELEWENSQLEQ

T10: O12-bS
T10 chain: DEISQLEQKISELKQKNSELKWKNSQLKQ

T11: O6-bS
T11 chain: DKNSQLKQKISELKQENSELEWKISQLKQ

T12: O2-bS
T12 chain: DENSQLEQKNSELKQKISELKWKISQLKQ

T13: O8-bS
T13 chain: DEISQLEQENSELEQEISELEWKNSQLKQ

T14: O13-bS
T14 chain: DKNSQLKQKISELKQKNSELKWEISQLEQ

T15: 4H491-bH
T15 chain: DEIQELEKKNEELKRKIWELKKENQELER

T16: P11A-bA
T16 chain: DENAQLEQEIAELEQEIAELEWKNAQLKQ

T17: O10-bS
T17 chain: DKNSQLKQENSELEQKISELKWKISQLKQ


What was measured:
Assay in all cases: two-hybrid library CCNG1;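 also: natural log of median RNA to DNA barcode read ratio; higher means stronger binding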
[1] = biological target: T1, O3-bS
[2] = biological target: T2, O16-bS
[3] = biological target: T3, O5-bS
[4] = biological target: T4, O7-bS
[5] = biological target: T5, O4-bS
[6] = biological target: T6, O15-bS
[7] = biological target: T7, O14-bS
[8] = biological target: T8, O9-bS
[9] = biological target: T9, O11-bS
[10] = biological target: T10, O12-bS
[11] = biological target: T11, O6-bS
[12] = biological target: T12, O2-bS
[13] = biological target: T13, O8-bS
[14] = biological target: T14, O13-bS
[15] = biological target: T15, 4H491-bH
[16] = biological target: T16, P11A-bA
[17] = biological target: T17, O10-bS; conditions: mean of both orientations

Row | interaction score [1] | interaction score [2] | interaction score [3] | interaction score [4] | interaction score [5] | interaction score [6] | interaction score [7] | interaction score [8] | interaction score [9] | interaction score [10] | interaction score [11] | interaction score [12] | interaction score [13] | interaction score [14] | interaction score [15] | interaction score [16] | interaction score [17] | interaction score ([8]; mean of both orientations) | Binder
1 | -1.25 | -0.701 | -2.35 | -1.17 | 0.272 | -0.753 | -2.92 | -2.56 | -1.25 | 1.88 | -0.902 | -0.471 | -3.31 | -0.61 | – | – | – | – | DKISQLKQEISELEQENSELEWENSQLEQ [O11-bS]
2 | – | – | – | – | – | – | – | – | – | – | – | – | – | – | -1.32 | 0.405 | – | – | DEIQELEKKNEELKRKIWELKKENQELER [4H491-bH]
3 | -0.954 | -0.405 | -1.67 | -0.783 | -0.565 | 0.0876 | – | – | -2 | -2.63 | -0.631 | -1.55 | -1.24 | -0.797 | – | – | -1.52 | 0.492 | DKNSQLKQENSELEQKISELKWKISQLKQ [O10-bS]
